Tests used:
SHP2-C SH2 = experiment: SH2 binding enrichment of the phosphorylated peptide, bacterial display (enrichment ratio); higher = better substrate or ligand; peptides without Tyr show the background
c-Src SH2 = experiment: as above
Grb2 SH2 = Grb2 SH2 (UniProt P62993); experiment: as above
Jak2 = Jak2 (UniProt O60674); experiment: phosphorylation enrichment, bacterial display (enrichment ratio); higher = better substrate or ligand; peptides without Tyr show the background
c-Abl (mouse) = experiment: as above
Hck = Hck (UniProt P08631); experiment: as above
Hck, sequence (P08631 whole entry, looked up): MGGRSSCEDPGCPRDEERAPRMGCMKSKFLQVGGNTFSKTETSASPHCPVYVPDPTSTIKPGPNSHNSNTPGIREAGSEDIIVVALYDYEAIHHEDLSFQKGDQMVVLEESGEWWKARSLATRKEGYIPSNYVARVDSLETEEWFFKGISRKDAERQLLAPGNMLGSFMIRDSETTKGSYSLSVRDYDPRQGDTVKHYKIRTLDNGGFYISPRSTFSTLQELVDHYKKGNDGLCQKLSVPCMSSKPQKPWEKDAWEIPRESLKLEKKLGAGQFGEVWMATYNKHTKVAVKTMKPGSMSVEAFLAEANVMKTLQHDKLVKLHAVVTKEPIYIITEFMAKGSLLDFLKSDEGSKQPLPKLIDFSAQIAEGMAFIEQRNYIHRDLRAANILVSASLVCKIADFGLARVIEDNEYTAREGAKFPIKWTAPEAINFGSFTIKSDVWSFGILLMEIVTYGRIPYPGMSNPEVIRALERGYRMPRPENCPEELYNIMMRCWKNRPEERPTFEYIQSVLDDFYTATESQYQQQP

Fer (mouse) = experiment: as above
FGFR1 = FGFR1 (UniProt P11362); experiment: as above
FGFR1, sequence (P11362 whole entry, looked up): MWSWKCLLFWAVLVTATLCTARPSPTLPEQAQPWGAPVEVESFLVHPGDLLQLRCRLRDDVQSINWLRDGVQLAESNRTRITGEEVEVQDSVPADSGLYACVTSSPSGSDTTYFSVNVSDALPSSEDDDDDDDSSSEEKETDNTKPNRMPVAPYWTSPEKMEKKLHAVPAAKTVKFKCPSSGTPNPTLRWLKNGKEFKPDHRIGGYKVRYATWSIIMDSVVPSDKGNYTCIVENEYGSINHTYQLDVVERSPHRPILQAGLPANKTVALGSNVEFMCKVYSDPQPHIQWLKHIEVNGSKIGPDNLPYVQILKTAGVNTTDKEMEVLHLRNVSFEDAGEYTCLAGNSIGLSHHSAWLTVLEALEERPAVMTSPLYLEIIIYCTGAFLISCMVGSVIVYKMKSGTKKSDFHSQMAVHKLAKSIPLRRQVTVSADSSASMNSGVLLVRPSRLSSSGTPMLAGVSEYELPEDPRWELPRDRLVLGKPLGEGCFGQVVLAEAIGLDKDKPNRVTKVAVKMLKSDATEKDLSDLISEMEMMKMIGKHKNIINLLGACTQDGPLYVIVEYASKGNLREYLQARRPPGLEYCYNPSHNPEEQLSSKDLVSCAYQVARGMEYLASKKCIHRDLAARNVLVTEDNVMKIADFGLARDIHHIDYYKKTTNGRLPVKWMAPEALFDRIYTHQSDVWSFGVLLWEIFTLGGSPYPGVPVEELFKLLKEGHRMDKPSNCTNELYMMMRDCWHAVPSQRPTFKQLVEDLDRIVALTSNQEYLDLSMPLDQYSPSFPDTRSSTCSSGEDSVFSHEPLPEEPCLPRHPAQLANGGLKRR

c-Src = experiment: as above
EPHB2 = EPHB2 (UniProt P29323); experiment: as above
AncSZ = experiment: as above
EPHB1 = EPHB1 (UniProt P54762); experiment: as above
Fyn = Fyn (UniProt P06241); experiment: as above
Fyn, sequence (P06241 whole entry, looked up): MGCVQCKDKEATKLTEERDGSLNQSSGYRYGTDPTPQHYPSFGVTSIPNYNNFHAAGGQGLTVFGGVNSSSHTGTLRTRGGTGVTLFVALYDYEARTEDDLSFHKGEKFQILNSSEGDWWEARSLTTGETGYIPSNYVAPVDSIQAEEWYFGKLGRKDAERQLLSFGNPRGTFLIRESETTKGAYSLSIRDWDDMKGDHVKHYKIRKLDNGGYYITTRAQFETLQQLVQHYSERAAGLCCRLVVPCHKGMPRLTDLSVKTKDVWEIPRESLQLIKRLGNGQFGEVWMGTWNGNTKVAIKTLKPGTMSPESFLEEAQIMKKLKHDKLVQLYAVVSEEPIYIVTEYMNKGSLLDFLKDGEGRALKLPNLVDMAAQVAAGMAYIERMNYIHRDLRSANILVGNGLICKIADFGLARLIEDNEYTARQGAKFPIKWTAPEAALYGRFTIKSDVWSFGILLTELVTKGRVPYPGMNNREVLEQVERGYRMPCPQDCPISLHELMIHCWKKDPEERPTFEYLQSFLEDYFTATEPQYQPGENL

MERTK = MERTK (UniProt Q12866); experiment: as above
MERTK, sequence (Q12866 whole entry, looked up): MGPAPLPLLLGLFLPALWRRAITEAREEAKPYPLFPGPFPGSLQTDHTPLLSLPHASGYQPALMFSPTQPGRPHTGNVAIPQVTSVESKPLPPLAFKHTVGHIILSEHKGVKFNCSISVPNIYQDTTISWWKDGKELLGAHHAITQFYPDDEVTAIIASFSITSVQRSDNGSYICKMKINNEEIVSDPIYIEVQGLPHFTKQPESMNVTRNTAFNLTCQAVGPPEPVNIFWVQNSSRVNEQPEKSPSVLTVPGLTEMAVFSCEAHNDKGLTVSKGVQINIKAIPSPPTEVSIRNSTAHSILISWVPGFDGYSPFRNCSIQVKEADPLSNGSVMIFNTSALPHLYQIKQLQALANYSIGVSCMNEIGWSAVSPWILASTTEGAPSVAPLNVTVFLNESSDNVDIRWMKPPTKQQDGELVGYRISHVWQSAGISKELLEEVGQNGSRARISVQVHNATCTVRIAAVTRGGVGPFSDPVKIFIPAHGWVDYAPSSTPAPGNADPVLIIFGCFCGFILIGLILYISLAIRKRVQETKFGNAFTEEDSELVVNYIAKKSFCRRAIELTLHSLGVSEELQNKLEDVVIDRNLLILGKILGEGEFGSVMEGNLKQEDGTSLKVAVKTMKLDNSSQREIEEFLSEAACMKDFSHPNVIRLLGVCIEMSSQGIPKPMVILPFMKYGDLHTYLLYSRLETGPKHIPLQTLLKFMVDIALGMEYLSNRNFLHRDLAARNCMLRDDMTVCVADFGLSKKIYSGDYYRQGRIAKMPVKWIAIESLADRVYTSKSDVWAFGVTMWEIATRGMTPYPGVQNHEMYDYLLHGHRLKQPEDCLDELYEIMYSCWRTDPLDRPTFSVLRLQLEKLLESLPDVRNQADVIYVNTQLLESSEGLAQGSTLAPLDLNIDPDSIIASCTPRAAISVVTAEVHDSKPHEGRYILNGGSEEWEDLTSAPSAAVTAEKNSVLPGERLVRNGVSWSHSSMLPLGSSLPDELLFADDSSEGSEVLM

Fes = Fes (UniProt P07332); experiment: as above
Fes, sequence (P07332 whole entry, looked up): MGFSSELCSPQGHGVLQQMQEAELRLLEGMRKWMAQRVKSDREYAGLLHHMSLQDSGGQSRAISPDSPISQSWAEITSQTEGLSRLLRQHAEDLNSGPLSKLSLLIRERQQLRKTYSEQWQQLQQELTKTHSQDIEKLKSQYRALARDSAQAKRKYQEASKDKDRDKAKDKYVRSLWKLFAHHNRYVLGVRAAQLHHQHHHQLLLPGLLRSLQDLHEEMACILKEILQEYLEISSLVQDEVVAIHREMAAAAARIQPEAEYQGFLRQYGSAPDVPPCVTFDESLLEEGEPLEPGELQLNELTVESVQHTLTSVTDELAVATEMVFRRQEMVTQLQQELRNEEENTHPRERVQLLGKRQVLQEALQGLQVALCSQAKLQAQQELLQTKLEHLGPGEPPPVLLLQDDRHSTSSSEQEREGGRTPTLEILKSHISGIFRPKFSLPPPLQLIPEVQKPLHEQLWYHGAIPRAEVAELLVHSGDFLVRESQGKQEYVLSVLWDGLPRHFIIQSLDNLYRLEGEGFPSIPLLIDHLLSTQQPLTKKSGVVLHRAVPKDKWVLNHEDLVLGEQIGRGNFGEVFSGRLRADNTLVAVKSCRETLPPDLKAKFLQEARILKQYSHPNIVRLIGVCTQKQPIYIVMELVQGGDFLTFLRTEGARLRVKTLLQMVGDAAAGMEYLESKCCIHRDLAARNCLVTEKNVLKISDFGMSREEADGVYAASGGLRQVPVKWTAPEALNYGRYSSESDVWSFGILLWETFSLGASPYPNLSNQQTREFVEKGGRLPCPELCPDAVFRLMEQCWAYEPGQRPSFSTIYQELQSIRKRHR

FGFR3 = FGFR3 (UniProt P22607); experiment: as above
FGFR3, sequence (P22607 whole entry, looked up, the tested form may be a part): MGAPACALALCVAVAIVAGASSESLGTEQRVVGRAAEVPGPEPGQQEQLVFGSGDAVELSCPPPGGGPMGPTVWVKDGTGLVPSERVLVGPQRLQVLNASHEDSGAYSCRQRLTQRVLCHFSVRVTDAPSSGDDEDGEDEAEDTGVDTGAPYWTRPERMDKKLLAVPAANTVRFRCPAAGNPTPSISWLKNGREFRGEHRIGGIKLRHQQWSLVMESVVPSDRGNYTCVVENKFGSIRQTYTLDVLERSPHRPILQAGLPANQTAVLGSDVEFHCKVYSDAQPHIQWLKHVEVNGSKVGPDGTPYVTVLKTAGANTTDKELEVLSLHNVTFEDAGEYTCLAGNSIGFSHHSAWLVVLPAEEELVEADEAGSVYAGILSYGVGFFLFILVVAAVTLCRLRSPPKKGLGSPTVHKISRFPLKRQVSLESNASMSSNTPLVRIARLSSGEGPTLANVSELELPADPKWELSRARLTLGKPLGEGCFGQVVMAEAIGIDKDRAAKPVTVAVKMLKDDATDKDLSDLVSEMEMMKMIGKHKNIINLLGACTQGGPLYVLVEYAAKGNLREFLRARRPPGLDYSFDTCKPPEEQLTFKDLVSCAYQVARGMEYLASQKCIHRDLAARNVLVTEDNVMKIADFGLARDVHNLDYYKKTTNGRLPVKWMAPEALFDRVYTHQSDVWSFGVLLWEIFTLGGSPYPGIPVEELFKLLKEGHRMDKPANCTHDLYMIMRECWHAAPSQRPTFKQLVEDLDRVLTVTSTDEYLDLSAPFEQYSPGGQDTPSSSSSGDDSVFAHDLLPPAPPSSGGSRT
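Wherever SH2 binding enrichment of the phosphorylated peptide, bacterial display is given: peptide library displayed on the E. coli surface as eCPX fusions, selected cells deep-sequenced, score is each peptide's frequency after selection divided by its frequency in the input.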
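Wherever phosphorylation enrichment, bacterial display is given: 11-residue human phosphosite peptides and single-mutation variants displayed on the E. coli surface, counted by deep sequencing, each peptide's frequency after selection divided by its frequency in the unselected input library; frequency after pTyr selection over input frequency; kinase dosed for 20-30% of maximal phosphorylation in three min.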

SH2 binding enrichment (SHP2-C SH2)	SH2 binding enrichment (c-Src SH2)	SH2 binding enrichment (Grb2 SH2)	Sequence	phosphorylation enrichment (Jak2)	phosphorylation enrichment (c-Abl (mouse))	phosphorylation enrichment (Hck)	phosphorylation enrichment (Fer (mouse))	phosphorylation enrichment (FGFR1)	phosphorylation enrichment (c-Src)	phosphorylation enrichment (EPHB2)	phosphorylation enrichment (AncSZ)	phosphorylation enrichment (EPHB1)	phosphorylation enrichment (Fyn)	phosphorylation enrichment (MERTK)	phosphorylation enrichment (Fes)	phosphorylation enrichment (FGFR3)
0.643	0.622	1.1	RPASVYTKRCS [CPT2_Y508]	0.444	0.687	0.418	0.459	0.586	0.476	0.603	0.781	0.377	0.623	0.442	0.826	0.533
2.07	1.71	1.79	RPSRWYQFPVA [ANOS1_Y259_R262P]	0.914	0.657	0.5	0.692	2.41	0.648	0.433	2.95	0.403	0.496	7.23	0.889	1.38
0.646	0.428	0.904	RQGKDYIGAIP [KDR_Y951_V952I]	1.14	1.88	0.696	0.462	0.596	0.837	0.62	0.804	0.399	0.715	0.813	0.764	0.547
0.695	0.525	0.84	RRAVKYLQMVG [AVPR2_Y117_C112R]	0.887	0.961	0.674	0.431	0.52	0.737	1.01	1.13	0.815	0.778	0.727	0.978	0.629
0.333	0.535	0.72	RRIEKYVDQGK [IRAK3_Y61_H57R]	0.419	0.56	0.445	0.326	0.736	0.483	0.322	0.88	0.615	0.516	0.571	0.662	0.416
0.712	0.797	1.01	RRIHNYRGHLW [VHL_Y112_S111N]	0.501	0.609	0.509	0.27	0.433	0.607	0.421	0.577	0.714	0.481	0.597	0.738	0.511
1.3	0.697	0.893	RSFLSYFTSHV [NEFL_Y442_P440L_YF]	1.1	1.05	0.915	0.677	0.752	0.879	0.743	1.54	0.759	0.642	0.826	1.8	1
0.587	1.65	0.662	RSIGEYDVLRG [PRKDC_Y2936]	0.73	1.55	3.99	0.428	0.36	0.974	0.779	0.795	0.738	0.671	0.536	0.786	0.394
1.47	0.66	1.2	RSRSPYSPVLR [CDK13_Y399]	0.563	0.763	0.628	0.423	1.06	0.701	0.477	0.917	0.476	0.551	0.674	0.854	0.584
0.348	0.435	0.786	RSRSSYTHSLN [MYCT1_Y116_G119S]	0.948	0.97	0.495	0.381	0.575	0.938	0.537	0.832	0.504	0.63	0.762	0.755	0.514
0.529	0.448	1.08	RVNSAYQEKVS [ACAN_Y100_D102E]	0.538	0.489	0.49	0.313	0.678	0.291	0.397	0.407	0.413	0.378	0.5	0.667	0.423
1.1	0.517	1.17	RVSSVYTRSTG [CCR5_Y339_A335V]	1.02	0.873	1.13	0.984	0.936	0.853	0.867	1.18	0.945	1.1	0.665	1.22	0.945
0.245	0.368	0.659	RYVSRYIYNRE [HLA-DQB1_Y62_T60S]	0.92	0.666	0.551	0.844	0.658	1.08	0.95	1.29	0.922	0.829	0.993	1.11	0.739
0.94	0.543	0.802	RYVTRSIYNRE [HLA-DQB1_Y62_Y62S]	1.1	0.735	0.682	0.495	0.622	0.705	0.389	0.772	0.226	0.553	0.601	1.1	0.327
0.891	0.443	0.9	SAAAIYTVRHP [PMP22_Y117]	0.506	0.67	7.82	0.474	0.487	6.41	0.516	0.615	0.54	5.3	1.92	0.601	0.43
0.979	6.28	1.98	SAASGYSDVTD [DTX2_Y425_T421A]	0.963	0.446	0.458	0.535	0.633	0.338	0.589	0.866	0.646	0.232	0.294	0.95	0.569
